In article PMC4092090, “Investigation of a MMP-2 Activity-Dependent Anchoring Probe for Nuclear Imaging of Cancer” (PLoS ONE, 2014):
Like-named read-outs stand apart in the source and are kept apart here.

What was measured:
Design in all cases: species or system mouse (Balb/c nu-nu)
[1] = tested on: HT1080 tumor bearing mice; conditions: mouse, in vivo, iv; for Radioactivity biodistribution, Blood / Radioactivity biodistribution, Heart / Radioactivity biodistribution, Intestine / Radioactivity biodistribution, Kidneys / Radioactivity biodistribution, Liver / Radioactivity biodistribution, Lung / Radioactivity biodistribution, Muscle / Radioactivity biodistribution, Pancreas / Radioactivity biodistribution, Spleen / Radioactivity biodistribution, Stomach / Radioactivity biodistribution, Tumor / T/B (tumor to blood ratio): 37 kBq
Procedure: Female Balb/c nu-nu mice (5 weeks old, Japan SLC, Inc., Shizuoka, Japan) were housed under a 12-h light/12-h dark cycle and given free access to food and water. HT1080 cells (5×10^6 cells/100 μl PBS (-)/mouse) were subcutaneously inoculated into the right hind leg of Balb/c nu-nu mice. Animals were used for experiments two weeks after inoculation when the mean tumor size was 5.7±2.2 mm along the major axis. […]3000 and […] (37 kBq, 100 μl in PBS including 3% bovine serum albumin and 0.1% Tween 80) were injected intravenously into the tail vein of tumor bearing mice. The mice were sacrificed at various post-injection time points (n = 3 for each time point), and the organs of interest including the tumor tissues were collected for determination of the weights. The radioactivity of each sample was measured with a NaI well-type scintillation counter. From fitting to the two phase decay curves for blood radioactivity data analyzed by GraphPad Prism 6 (GraphPad Software, San Diego, CA), whole body pharmacokinetic parameters such as blood half-lives, distribution volume, mean residence time and total clearance were calculated for each of the probes and the values compared. Simple pharmacokinetic analysis using a single tissue compartment model was applied to the biodistribution data to calculate rate constants (K1 and k2) for radioactivity transfer from blood to tumor and clearance from tumor to blood by PMOD version 3.2. In addition, MDAP3000 (7.4 MBq in 200 μl) was injected intravenously into the tail vein of tumor bearing mice for metabolite analysis in tumors excised 3, 6, and 24 hr post injection (n = 2 each). Tumor homogenates were prepared on ice and insoluble material was removed by centrifugation after methanol treatment. The resulting supernatant was analyzed by RP-HPLC.

[2] = tested on: HT1080 tumor bearing mice; conditions: mouse, in vivo, iv
Procedure: (§1) […]3000 and […] (37 kBq, 100 μl in PBS including 3% bovine serum albumin and 0.1% Tween 80) were injected intravenously into the tail vein of tumor bearing mice. The mice were sacrificed at various post-injection time points (n = 3 for each time point), and the organs of interest including the tumor tissues were collected for determination of the weights. The radioactivity of each sample was measured with a NaI well-type scintillation counter. From fitting to the two phase decay curves for blood radioactivity data analyzed by GraphPad Prism 6 (GraphPad Software, San Diego, CA), whole body pharmacokinetic parameters such as blood half-lives, distribution volume, mean residence time and total clearance were calculated for each of the probes and the values compared. Simple pharmacokinetic analysis using a single tissue compartment model was applied to the biodistribution data to calculate rate constants (K1 and k2) for radioactivity transfer from blood to tumor and clearance from tumor to blood by PMOD version 3.2. In addition, MDAP3000 (7.4 MBq in 200 μl) was injected intravenously into the tail vein of tumor bearing mice for metabolite analysis in tumors excised 3, 6, and 24 hr post injection (n = 2 each). Tumor homogenates were prepared on ice and insoluble material was removed by centrifugation after methanol treatment. The resulting supernatant was analyzed by RP-HPLC.

HT1080 tumor xenograft = conditions: mouse, in vivo, iv
Procedure: as §1

Palmitoyl-Dap(p-SCN-Bn-DTPA-^111In)-10-Adc-Gly-Pro-Leu-Gly-Val-Arg-Gly-Lys(ivDde)-PEG1000 [MDAP1000]
Blood clearance (in words) [1]: rapid blood clearance
Tumor accumulation (in words) [1]: low tumor accumulation
Radioactivity biodistribution, Blood ([1]; 0.25 h): 46.93±5.71 % injected dose per gram
Radioactivity biodistribution, Heart ([1]; 0.25 h): 9.40±2.03 % injected dose per gram
Radioactivity biodistribution, Intestine ([1]; 0.25 h): 4.18±0.58 % injected dose per gram
Radioactivity biodistribution, Kidneys ([1]; 0.25 h): 14.24±1.90 % injected dose per gram
Radioactivity biodistribution, Liver ([1]; 0.25 h): 34.27±5.87 % injected dose per gram
Radioactivity biodistribution, Lung ([1]; 0.25 h): 21.23±2.65 % injected dose per gram
Radioactivity biodistribution, Muscle ([1]; 0.25 h): 2.15±0.57 % injected dose per gram
Radioactivity biodistribution, Pancreas ([1]; 0.25 h): 4.28±0.41 % injected dose per gram
Radioactivity biodistribution, Spleen ([1]; 0.25 h): 8.06±0.23 % injected dose per gram
Radioactivity biodistribution, Stomach ([1]; 0.25 h): 1.03±0.15 % injected dose per organ
Radioactivity biodistribution, Tumor ([1]; 0.25 h): 1.70±0.85 % injected dose per gram
T/B (tumor to blood ratio) ([1]; 0.25 h): 0.04±0.01
Radioactivity biodistribution, Blood ([1]; 1 h): 24.81±3.60 % injected dose per gram
Radioactivity biodistribution, Heart ([1]; 1 h): 8.43±1.19 % injected dose per gram
Radioactivity biodistribution, Intestine ([1]; 1 h): 8.97±0.28 % injected dose per gram
Radioactivity biodistribution, Kidneys ([1]; 1 h): 11.66±1.17 % injected dose per gram
Radioactivity biodistribution, Liver ([1]; 1 h): 42.27±8.44 % injected dose per gram
Radioactivity biodistribution, Lung ([1]; 1 h): 12.56±1.70 % injected dose per gram
Radioactivity biodistribution, Muscle ([1]; 1 h): 1.94±0.33 % injected dose per gram
Radioactivity biodistribution, Pancreas ([1]; 1 h): 5.52±1.05 % injected dose per gram
Radioactivity biodistribution, Spleen ([1]; 1 h): 7.72±1.86 % injected dose per gram
Radioactivity biodistribution, Stomach ([1]; 1 h): 1.13±0.21 % injected dose per organ
Radioactivity biodistribution, Tumor ([1]; 1 h): 1.90±0.38 % injected dose per gram
T/B (tumor to blood ratio) ([1]; 1 h): 0.08±0.02
Radioactivity biodistribution, Blood ([1]; 3 h): 10.58±1.28 % injected dose per gram
Radioactivity biodistribution, Heart ([1]; 3 h): 7.47±0.45 % injected dose per gram
Radioactivity biodistribution, Intestine ([1]; 3 h): 20.39±4.51 % injected dose per gram
Radioactivity biodistribution, Kidneys ([1]; 3 h): 10.56±1.49 % injected dose per gram
Radioactivity biodistribution, Liver ([1]; 3 h): 50.70±7.52 % injected dose per gram
Radioactivity biodistribution, Lung ([1]; 3 h): 6.17±0.88 % injected dose per gram
Radioactivity biodistribution, Muscle ([1]; 3 h): 2.00±0.38 % injected dose per gram
Radioactivity biodistribution, Pancreas ([1]; 3 h): 4.50±1.45 % injected dose per gram
Radioactivity biodistribution, Spleen ([1]; 3 h): 10.01±3.77 % injected dose per gram
Radioactivity biodistribution, Stomach ([1]; 3 h): 1.14±0.33 % injected dose per organ
Radioactivity biodistribution, Tumor ([1]; 3 h): 2.65±0.33 % injected dose per gram
T/B (tumor to blood ratio) ([1]; 3 h): 0.25±0.05
Radioactivity biodistribution, Blood ([1]; 6 h): 5.85±0.74 % injected dose per gram
Radioactivity biodistribution, Heart ([1]; 6 h): 5.71±0.61 % injected dose per gram
Radioactivity biodistribution, Intestine ([1]; 6 h): 13.23±3.92 % injected dose per gram
Radioactivity biodistribution, Kidneys ([1]; 6 h): 9.53±1.08 % injected dose per gram
Radioactivity biodistribution, Liver ([1]; 6 h): 30.08±5.98 % injected dose per gram
Radioactivity biodistribution, Lung ([1]; 6 h): 4.38±0.32 % injected dose per gram
Radioactivity biodistribution, Muscle ([1]; 6 h): 1.68±0.46 % injected dose per gram
Radioactivity biodistribution, Pancreas ([1]; 6 h): 5.53±1.77 % injected dose per gram
Radioactivity biodistribution, Spleen ([1]; 6 h): 10.00±2.61 % injected dose per gram
Radioactivity biodistribution, Stomach ([1]; 6 h): 0.73±0.06 % injected dose per organ
Radioactivity biodistribution, Tumor ([1]; 6 h): 3.18±0.69 % injected dose per gram
T/B (tumor to blood ratio) ([1]; 6 h): 0.55±0.15
Radioactivity biodistribution, Blood ([1]; 24 h): 5.26±0.94 % injected dose per gram
Radioactivity biodistribution, Heart ([1]; 24 h): 4.11±0.44 % injected dose per gram
Radioactivity biodistribution, Intestine ([1]; 24 h): 4.90±0.90 % injected dose per gram
Radioactivity biodistribution, Kidneys ([1]; 24 h): 7.01±0.45 % injected dose per gram
Radioactivity biodistribution, Liver ([1]; 24 h): 8.89±1.11 % injected dose per gram
Radioactivity biodistribution, Lung ([1]; 24 h): 2.63±0.28 % injected dose per gram
Radioactivity biodistribution, Muscle ([1]; 24 h): 1.55±0.13 % injected dose per gram
Radioactivity biodistribution, Pancreas ([1]; 24 h): 6.21±3.76 % injected dose per gram
Radioactivity biodistribution, Spleen ([1]; 24 h): 4.82±1.10 % injected dose per gram
Radioactivity biodistribution, Stomach ([1]; 24 h): 0.49±0.09 % injected dose per organ
Radioactivity biodistribution, Tumor ([1]; 24 h): 3.33±0.44 % injected dose per gram
T/B (tumor to blood ratio) ([1]; 24 h): 0.65±0.15
Blood half-life, Fast [2]: 4.0×10 min
Blood half-life, Slow [2]: 43.3 h
Clearance (total clearance) [2]: 0.0083 mL/min
Distribution volume [2]: 1.71 mL
Mean residence time [2]: 210 min
K1, rate constant for transfer from blood to tumor, Mean (HT1080 tumor xenograft): 0.00071 mL/g/min
k2, rate constant for clearance from tumor to blood, Mean (HT1080 tumor xenograft): 0.0011 min⁻¹
